Data from patent publication US20220363757A1 (SYMPHOGEN A S, published 2022).
Substitutions are numbered along the chain they refer to. Each block holds one binder with its values, some of them ahead of it.

How the values were obtained:
mouse LAG-3 ECD = target: T1, mouse LAG-3 ECD (mouse, UniProt Q61790 24-442); test: SPR, Fab over captured LAG-3 ECD
T1 sequence: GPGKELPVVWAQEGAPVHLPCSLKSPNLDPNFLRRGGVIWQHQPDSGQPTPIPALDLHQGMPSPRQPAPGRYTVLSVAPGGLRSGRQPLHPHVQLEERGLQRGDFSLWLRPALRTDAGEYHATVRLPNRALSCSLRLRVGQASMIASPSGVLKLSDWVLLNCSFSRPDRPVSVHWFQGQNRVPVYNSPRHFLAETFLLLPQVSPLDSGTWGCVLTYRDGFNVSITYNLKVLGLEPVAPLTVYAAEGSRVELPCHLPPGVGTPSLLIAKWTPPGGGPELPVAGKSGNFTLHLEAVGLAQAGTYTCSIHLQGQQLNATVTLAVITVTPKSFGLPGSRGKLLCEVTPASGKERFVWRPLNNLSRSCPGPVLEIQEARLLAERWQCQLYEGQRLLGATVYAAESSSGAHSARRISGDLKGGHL
Method: Antigens were purified using standard procedures and captured onto an G-a-hu-IgG Fc SensEye® (Ssens BV, The Netherlands) for 15 minutes using a Continuous Flow Microspotter (CFM, Wasatch Microfluidics, Salt Lake City, US). After spotting, the SensEye® was positioned in the IBIS MX96 biosensor and remaining capture sites blocked. […] Fab association was performed for 15 minutes and antigen dissociation was performed for 15 minutes. The recorded binding responses were fitted to a simple Langmuir 1:1 binding model with Scrubber 2 software for calculation of the on-rate (kon or ka), off-rate (koff or kd) and affinity (KL) constants.

[1] = target: T2, human LAG-3 domain 1-2 Fc fusion, point mutation #6 T47A (human, UniProt P18627 23-266); test: SPR, Fab over captured mutant LAG-3-Fc;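 note: fc fusion variants captured on anti-human IgG Fc sensor, Fab injected with association then dissociation phases, KD obtained from Langmuir one-to-one fit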
T2 construct: not shown: human IgG1 Fc, AA P101-K330
T2 sequence: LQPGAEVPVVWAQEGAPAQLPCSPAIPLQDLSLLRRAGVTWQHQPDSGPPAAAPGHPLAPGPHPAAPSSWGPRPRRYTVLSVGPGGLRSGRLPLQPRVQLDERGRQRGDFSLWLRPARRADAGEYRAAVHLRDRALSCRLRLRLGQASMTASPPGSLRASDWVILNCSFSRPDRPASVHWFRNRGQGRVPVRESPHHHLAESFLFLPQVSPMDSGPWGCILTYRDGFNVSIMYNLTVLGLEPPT

[2] = target: T3, human LAG-3 domain 1-2 Fc fusion, point mutation #20 A73S (human, UniProt P18627 23-266); test: SPR, Fab over captured mutant LAG-3-Fc;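 note: fc fusion variants captured on anti-human IgG Fc sensor, Fab injected with association then dissociation phases, KD obtained from Langmuir one-to-one fit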
T3 construct: not shown: human IgG1 Fc, AA P101-K330
T3 sequence: T2 sequence with A25T, A51S

[3] = target: T4, human LAG-3 domain 1-2 Fc fusion, point mutation #50 P106A (human, UniProt P18627 23-266); test: SPR, Fab over captured mutant LAG-3-Fc;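 note: fc fusion variants captured on anti-human IgG Fc sensor, Fab injected with association then dissociation phases, KD obtained from Langmuir one-to-one fit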
T4 construct: not shown: human IgG1 Fc, AA P101-K330
T4 sequence: T2 sequence with A25T, P84A

[4] = target: T5, human LAG-3 domain 1-2 Fc fusion, point mutation #52 G108A (human, UniProt P18627 23-266); test: SPR, Fab over captured mutant LAG-3-Fc;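 note: fc fusion variants captured on anti-human IgG Fc sensor, Fab injected with association then dissociation phases, KD obtained from Langmuir one-to-one fit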
T5 construct: not shown: human IgG1 Fc, AA P101-K330
T5 sequence: T2 sequence with A25T, G86A

[5] = target: T6, human LAG-3 domain 1-2 Fc fusion, point mutation #8 Q51A (human, UniProt P18627 23-266); test: SPR, Fab over captured mutant LAG-3-Fc
T6 construct: not shown: human IgG1 Fc, AA P101-K330
T6 sequence: T2 sequence with A25T, Q29A

[6] = target: T7, human LAG-3 domain 1-2 Fc fusion, point mutation #70 G130A (human, UniProt P18627 23-266); test: SPR, Fab over captured mutant LAG-3-Fc
T7 construct: not shown: human IgG1 Fc, AA P101-K330
T7 sequence: T2 sequence with A25T, G108A

[7] = target: T8, human LAG-3 domain 1-2 Fc fusion, point mutation #10 S54A (human, UniProt P18627 23-266); test: SPR, Fab over captured mutant LAG-3-Fc
T8 construct: not shown: human IgG1 Fc, AA P101-K330
T8 sequence: T2 sequence with A25T, S32A

B1: Fab fragment of antibody 15572 (Fab, V domains shown, not shown: a dimerising Fc or GST)
VH: QLQLQESGPGLVKPSETLSLTCTVSGDSISSSSYYWGWIRQPPGKGLEWIGSIFYSGNTYYNPSLKSRVTISVDTSKNQFSLKLSSVTAADTAVYYCAREDDFLTDYYGAFDIWGQGTMVTVSS
VL: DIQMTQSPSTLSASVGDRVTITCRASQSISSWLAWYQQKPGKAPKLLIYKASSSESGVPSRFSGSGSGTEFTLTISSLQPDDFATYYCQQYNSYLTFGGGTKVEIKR
notes: monomeric Fab made by GingisKHAN digestion of the IgG1
- binding result (mouse LAG-3 ECD): no binding (tested: 1000 nM)
- KD mutant/KD wild type [1]: 0.6 fold
- KD mutant/KD wild type [2]: 0.6 fold
- binding result [3]: no binding (tested: 300 nM)
- KD mutant/KD wild type [4]: 0.4 fold
- KD mutant/KD wild type [5]: 0.6 fold
- binding result [6]: no binding (tested: 300 nM)
- KD mutant/KD wild type [7]: 0.7 fold

B4: Fab fragment of antibody 15011 (Fab, V domains shown, not shown: a dimerising Fc or GST)
VH: EVQLLESGGGLVQPGGSLRLSCAASGFDFRSYAMMWVRQAPGKGLEWVGGINGEVGGSNTYYAPAVKGRATISRDNSKNTLYLQMNSLRAEDTAVYYCVKGAGACGICNDDIDAWGQGTLVTVSS
VL: SYELTQDPAVSVALGQTVRITCSGAGSYAGSYYYGWHQQKPGQAPVTVIYDNDKRPSNIPDRFSGSSSGNTASLTITGAQAEDEADYYCGSTNDNDDGGLFGSGTKVTVLG
notes: as for B1
- Kd (mouse LAG-3 ECD): 33 nM
- koff (mouse LAG-3 ECD): 0.0023 s⁻¹
- kon (mouse LAG-3 ECD): 72000 M⁻¹ s⁻¹
- KD mutant/KD wild type [1]: 0.9 fold
- KD mutant/KD wild type [2]: 0.7 fold
- KD mutant/KD wild type [3]: 4.6 fold
- KD mutant/KD wild type [4]: 0.5 fold
- KD mutant/KD wild type [5]: 0.8 fold
- KD mutant/KD wild type [6]: 0.6 fold
- KD mutant/KD wild type [7]: 0.8 fold

More lines, now with the values ahead:

- binding result (mouse LAG-3 ECD): no binding (tested: 1000 nM)
- KD mutant/KD wild type [1]: 1.5 fold
- KD mutant/KD wild type [2]: 0.7 fold
- KD mutant/KD wild type [3]: 2.7 fold
- KD mutant/KD wild type [4]: 1 fold
- KD mutant/KD wild type [5]: 0.9 fold
- KD mutant/KD wild type [6]: 4.4 fold
- KD mutant/KD wild type [7]: 0.7 fold
B2: Fab fragment of antibody 15532 (Fab, V domains shown, not shown: a dimerising Fc or GST)
VH: QVQLQQWGAGLLRPSETLSLTCAVYGESFSGYYWNWIRQPPGKGLEWIGEINHSGSTNYNPSLKSRVTISVDTSKTQFSLKLSSVTAADTAVYYCARGWDLLDWNDYWNEYWGQGTLVTVSS
VL: EIVLTQSPATLSLSPGERATLSCRASQSVSSYLAWYQQKPGQAPRLLIYDASNRATGIPARFSGSGSGTDFTLTISSLEPEDFAVYYCQQRSNWPLTFGGGTKVEIKR
notes: as for B1

- binding result (mouse LAG-3 ECD): no binding (tested: 1000 nM)
- KD mutant/KD wild type [1]: 0.9 fold
- KD mutant/KD wild type [2]: 0.6 fold
- binding result [3]: no binding (tested: 300 nM)
- KD mutant/KD wild type [4]: 0.3 fold
- KD mutant/KD wild type [5]: 0.7 fold
- binding result [6]: no binding (tested: 300 nM)
- KD mutant/KD wild type [7]: 0.5 fold
B3: Fab fragment of antibody 15431 (Fab, V domains shown, not shown: a dimerising Fc or GST)
VH: QVQLQQSGPGLVKPSQTLSLTCAISGDSVSSNSAAWNWIRQSPSRGLEWLGRTYYRSKWYNDYAVSVKSRITINPDTSKNQFSLQLNSVTPEDTAVYYCARDDDWNDFDYWGQGTLVTVSS
VL: B2 VL
notes: as for B1
